Results from patent US20190367620A1 (Merck KGaA, published 2019).
Residue numbers refer to the chain shown, from its start.

Legend:
[1] = target: T1, human FGFR1b-IIIc extracellular domain with a HIS tag (human, UniProt P11362 22-376); assay: SPR (Biacore 4000), antibody captured, His-tagged FGFR1 injected; no unit in the table, nM inferred from paragraph 90
T1 construct: also called huFGFR1b-IIIc; hFGFR1b-IIIc
T1 sequence: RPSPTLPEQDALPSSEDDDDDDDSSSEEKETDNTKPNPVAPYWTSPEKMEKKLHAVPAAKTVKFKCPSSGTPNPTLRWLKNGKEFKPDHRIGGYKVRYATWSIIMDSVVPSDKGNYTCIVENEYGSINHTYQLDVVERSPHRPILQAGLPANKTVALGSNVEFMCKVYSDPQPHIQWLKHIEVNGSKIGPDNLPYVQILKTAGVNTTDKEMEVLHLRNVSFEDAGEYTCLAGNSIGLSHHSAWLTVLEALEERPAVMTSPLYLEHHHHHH
Experimental: (§1) Binding affinities of anti-FGFR1 antibodies to FGFR1 were measured by Surface Plasmon Resonance (SPR) using a GE Healthcare BIAcore 4000 instrument as follows. Goat anti-human Fc antibody (Jackson ImmunoResearch Laboratories #109-005-098) was first immobilized on BIAcore carboxymethylated dextran CM5 chip using direct coupling to free amino groups following the procedure described by the manufacturer. Antibodies were then captured on the CM5 biosensor chip to achieve approximately 200 response units (RU). Binding measurements were performed using the running HBS-EP+ buffer. A 2-fold dilution series of His-tagged FGFR1 proteins were injected at a flow rate of 30 μl/min at 25° C. Association rates (kₒₙ, per mol/s) and dissociation rates (koff, per s) were calculated using a simple 1:1 Langmuir binding model (Biacore 4000 Evaluation Software). The equilibrium dissociation constant (KD, mol) was calculated as the ratio of koff/kₒₙ.

[2] = target: T2, human FGFR1b-IIIb extracellular domain with a HIS tag (human); assay: as above
T2 construct: also called huFGFR1b-IIIb; hFGFR1b-IIIb
T2 chain: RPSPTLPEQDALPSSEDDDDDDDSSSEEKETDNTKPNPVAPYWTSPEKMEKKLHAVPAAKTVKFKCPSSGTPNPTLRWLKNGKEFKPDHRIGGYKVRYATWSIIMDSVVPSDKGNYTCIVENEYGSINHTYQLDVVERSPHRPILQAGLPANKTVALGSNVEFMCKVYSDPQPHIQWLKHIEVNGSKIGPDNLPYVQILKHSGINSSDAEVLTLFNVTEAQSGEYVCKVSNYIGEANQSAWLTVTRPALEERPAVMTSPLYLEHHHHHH
Experimental: as §1

muFGFR1a-IIIc = target: T3, muFGFR1a-IIIc (mouse, UniProt P16092 22-376); assay: as above
T3 construct: Bought, His6 tag; also called mouse FGFR1a-IIIc His6-tagged; murine FGFR1a-IIIc
T3 sequence (looked up): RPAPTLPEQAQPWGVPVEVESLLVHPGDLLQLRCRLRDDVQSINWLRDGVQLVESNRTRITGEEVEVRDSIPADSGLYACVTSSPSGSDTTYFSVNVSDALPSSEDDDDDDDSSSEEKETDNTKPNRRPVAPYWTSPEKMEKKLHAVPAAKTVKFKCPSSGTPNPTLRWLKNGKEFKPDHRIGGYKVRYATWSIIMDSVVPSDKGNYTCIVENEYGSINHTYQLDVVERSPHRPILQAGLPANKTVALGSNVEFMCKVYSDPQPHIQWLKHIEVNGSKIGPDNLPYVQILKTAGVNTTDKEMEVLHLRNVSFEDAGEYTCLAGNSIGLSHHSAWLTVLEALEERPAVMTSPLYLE
Experimental: as §1

rheFGFR1a-IIIc = target: T4, rheFGFR1a-IIIc (rhesus monkey); assay: as above
T4 construct: Bought, His6 tag; also called rhesus monkey FGFR1a-IIIc His6-tagged
Experimental: as §1

ratFGFR1a-IIIc = target: T5, ratFGFR1a-IIIc (rat, UniProt Q04589 22-376); assay: as above
T5 construct: Bought, His6 tag; also called rat FGFR1a-IIIc His6-tagged
T5 sequence (looked up): T3 sequence (looked up) with V53A, S83N, N164S, V287D
Experimental: as §1

[3] = target: T6, FGFR1 D2 point mutant P57A (human, UniProt P11362 22-254); assay: SPR; free energy change relative to wild-type D2
T6 chain: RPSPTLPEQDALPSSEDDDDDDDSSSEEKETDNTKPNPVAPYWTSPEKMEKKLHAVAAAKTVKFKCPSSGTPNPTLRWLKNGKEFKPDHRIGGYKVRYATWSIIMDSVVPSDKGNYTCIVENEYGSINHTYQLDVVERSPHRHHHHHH
Experimental: as §1
To obtain a finer, residue-level mapping of the epitope and to complement the HD exchange data, molecular modelling and manual inspection of the crystal structure of FGFR1 [(Beenken et al. 2012); PDB record 3OJV] was used to select solvent exposed residues within and around the epitope identified by HD exchange. The selected residues were mutated either to alanine (large to small) or to glycine if the selected residue was alanine. In total 35 point mutants were designed, expressed and purified in HEK cells, and tested for binding to mAb #A08 using surface plasmon resonance as described in Example 1.8. The affinity of the antibody for wild-type and each mutant was determined and used to calculate the contribution of each epitope residue to the binding energy.
Variant were compared to wild-type D2. The change in the Gibbs free energy of binding of mutant relative to the wild-type D2 construct (ΔΔGₘᵤₜ) was derived from the ratio of the wild-type and mutant KD.

[4] = target: T1, human FGFR1b-IIIc extracellular domain …; assay: ELISA, antibody titrated on huFGFR1b-IIIc, O.D. 450 nm [panel huFGFR1b-IIIc]

B1: mAb #A08 (antibody, V domains shown)
VH: EVQLQESGPGLVKPSGTLSLTCAVSGGSISSNNWWSWVRQPPGKGLEWIGEIYHSGSTSYNPSLKSRVTISVDKSKNQFSLKLNSVTAADTAVYYCARGTDWFDPWGQGTLVTVSS
VL: QAVLTQPPSVSVAPGQTARITCGGNNIGSESVHWYQQKPGQAPVLVVYDDSDRPSGIPERFSGSNSGNTATLTISRVEAGDEADYYCQVWDSTSDHRVFGGGTKLTVL
notes: Only variable domains are tied to the name mAb #A08 (hit); also called #A08 hit; mAb #08
B1 gave a Kd [1] of 0.017 nM, a Kd [2] of 0.01 nM and a Kd (muFGFR1a-IIIc) of 2.3 nM. The Kd (rheFGFR1a-IIIc) was 0.46 nM, the Kd (ratFGFR1a-IIIc) was 2.2 nM and the ΔΔGmut [3] was 0.44 kcal/mol. The “EC50 (read off the curve)” value [4] was about 0.03 nM.
